The numbers were not newly measured in paper PMC8403128, which cites them from elsewhere.

As a reminder, the Kd is the constant that tells how readily two partners part at equilibrium.

Series [1] deals with Low-density lipoprotein receptor-related protein 1 (Homo sapiens) (UniProt Q07954).
The target is the same in series [2]. This is another data set of the same source.

Like-named read-outs stand apart in the source and are kept apart here.

Chain of UniProt Q07954 (Q07954 4441-4544): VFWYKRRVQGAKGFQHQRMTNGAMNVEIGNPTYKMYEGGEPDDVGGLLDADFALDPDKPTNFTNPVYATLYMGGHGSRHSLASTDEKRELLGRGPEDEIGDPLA

As to “Matrix metalloproteinase-1 (from UniProt P03956)”, the Kd in series [1] was > 1 µM. On to “Matrix metalloproteinase-3 (from UniProt P08254)”, for which the Kd in series [2] is > 1 µM.
